Data reported in publication PMC6420652.

Assays:
[1] = target: AZIN (Homo sapiens) (UniProt O14977); experiment: ultracentrifugation; details: cited from earlier work
[2] = target: antizyme-mRuby2 (antizyme with a C-terminal mRuby2 tag) (UniProt P54368); experiment: FRET titration; details: parent: est. 24; read off a plot
antizyme-mRuby2 (antizyme with a C-terminal mRuby2 tag), sequence (P54368 whole entry): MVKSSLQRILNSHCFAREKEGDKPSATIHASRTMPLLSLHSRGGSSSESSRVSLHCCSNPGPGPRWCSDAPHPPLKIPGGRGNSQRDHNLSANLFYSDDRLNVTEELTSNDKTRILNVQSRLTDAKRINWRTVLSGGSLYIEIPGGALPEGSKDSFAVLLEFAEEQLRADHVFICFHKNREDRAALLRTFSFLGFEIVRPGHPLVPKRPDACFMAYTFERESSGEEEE

AZIN (Homo sapiens), sequence (O14977 whole entry): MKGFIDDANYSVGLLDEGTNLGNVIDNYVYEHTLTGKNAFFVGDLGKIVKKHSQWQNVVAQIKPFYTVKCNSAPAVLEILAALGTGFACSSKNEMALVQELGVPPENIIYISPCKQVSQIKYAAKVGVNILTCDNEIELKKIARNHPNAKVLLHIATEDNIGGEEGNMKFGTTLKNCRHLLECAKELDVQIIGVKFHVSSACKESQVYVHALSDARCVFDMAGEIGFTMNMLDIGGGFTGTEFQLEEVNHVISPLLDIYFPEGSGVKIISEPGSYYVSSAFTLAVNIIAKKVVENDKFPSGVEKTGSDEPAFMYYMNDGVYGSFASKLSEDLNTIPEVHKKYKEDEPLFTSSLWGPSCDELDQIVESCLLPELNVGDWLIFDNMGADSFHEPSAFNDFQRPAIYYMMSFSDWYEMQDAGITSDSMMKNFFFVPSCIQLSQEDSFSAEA
Clover-AZIN (antizyme inhibitor with an N-terminal Clover tag), sequence (O14977 whole entry, stated change not applied): as the sequence (O14977 whole entry) above
Antizyme, sequence (P54368 whole entry): as the sequence (P54368 whole entry) above

| Kd [2] | Substance | Kd [1] |
| --- | --- | --- |
| – | Antizyme (from UniProt P54368) | 20 nM |
| 11 nM | Clover-AZIN (antizyme inhibitor with an N-terminal Clover tag) (from UniProt O14977) V137A | – |
